Experimental data reported in US20050233963A1.

Biological target: hsc70 (constitutively expressed form of hsp70) (UniProt P11142)
Experiment: cell-based or functional assay

hsc70 (constitutively expressed form of hsp70), sequence (P11142 whole entry): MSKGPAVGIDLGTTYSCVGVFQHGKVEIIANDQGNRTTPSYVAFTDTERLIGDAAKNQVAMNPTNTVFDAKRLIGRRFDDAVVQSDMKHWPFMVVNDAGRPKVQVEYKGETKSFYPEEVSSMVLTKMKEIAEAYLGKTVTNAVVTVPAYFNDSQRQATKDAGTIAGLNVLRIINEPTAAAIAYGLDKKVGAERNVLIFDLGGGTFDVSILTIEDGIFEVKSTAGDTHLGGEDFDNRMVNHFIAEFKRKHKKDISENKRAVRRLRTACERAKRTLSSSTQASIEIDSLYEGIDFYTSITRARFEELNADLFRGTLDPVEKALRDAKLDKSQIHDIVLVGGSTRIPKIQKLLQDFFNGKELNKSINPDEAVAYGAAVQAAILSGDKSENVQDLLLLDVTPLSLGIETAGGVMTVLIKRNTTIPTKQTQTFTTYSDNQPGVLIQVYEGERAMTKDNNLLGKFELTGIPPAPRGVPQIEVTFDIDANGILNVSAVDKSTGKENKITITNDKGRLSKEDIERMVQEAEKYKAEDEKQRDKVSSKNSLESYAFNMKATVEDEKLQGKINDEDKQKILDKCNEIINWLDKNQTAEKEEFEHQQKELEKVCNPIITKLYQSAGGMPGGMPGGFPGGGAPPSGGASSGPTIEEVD

- decrease in hs70-dependent refolding of luciferase: 30%
Substance: His-UBP (histidine tagged-UBP) (from UniProt O43765 1-313)
